Assay [1] addresses T1, human mEH in human tissue whole extracts (Homo sapiens, endogenous, UniProt P07099).
T1 construct: human microsomal epoxide hydrolase, endogenous in human tissue extracts (adrenal, esophagus, liver, pancreas, ovary, heart, hippocampus); also called bioactive mEH in the crude extracts; source: endogenous, whole tissue extracts of human commercial tissue samples (BioChain Institute)
Put plainly: ELISA; sandwich ELISAs of formats A, B and C (mAb capture, native or biotinylated MQ30 detection) on human whole tissue extracts diluted 10^3, 10^4 and 10^5-fold. The following applies: one partner purified. (In an ELISA, binding on a coated surface is turned into a signal by an enzyme label.)

Assay [2] has as its target T2, human EH-4 (human) (UniProt Q8IUS5).
T2 sequence: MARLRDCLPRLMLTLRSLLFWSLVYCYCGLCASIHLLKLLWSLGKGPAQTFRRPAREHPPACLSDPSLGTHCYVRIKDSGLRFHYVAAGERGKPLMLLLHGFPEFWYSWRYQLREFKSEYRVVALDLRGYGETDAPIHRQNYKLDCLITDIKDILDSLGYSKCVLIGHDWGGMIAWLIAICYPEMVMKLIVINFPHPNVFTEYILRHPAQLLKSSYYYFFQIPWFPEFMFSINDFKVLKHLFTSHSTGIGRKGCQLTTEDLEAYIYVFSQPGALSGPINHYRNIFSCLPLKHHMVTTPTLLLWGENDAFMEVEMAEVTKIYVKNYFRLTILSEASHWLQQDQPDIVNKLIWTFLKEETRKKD
Put plainly: ELISA; cross-reactivity in the format A sandwich (mAb capture, MQ30 detection): epoxide hydrolases spiked at 1000 ng mL^-1 in PBS, read against the human mEH standard curve; a signal needs capture by the mAb as well as MQ30.

Assay [3] has as its target T3, human sEH (human) (UniProt P34913).
T3 sequence: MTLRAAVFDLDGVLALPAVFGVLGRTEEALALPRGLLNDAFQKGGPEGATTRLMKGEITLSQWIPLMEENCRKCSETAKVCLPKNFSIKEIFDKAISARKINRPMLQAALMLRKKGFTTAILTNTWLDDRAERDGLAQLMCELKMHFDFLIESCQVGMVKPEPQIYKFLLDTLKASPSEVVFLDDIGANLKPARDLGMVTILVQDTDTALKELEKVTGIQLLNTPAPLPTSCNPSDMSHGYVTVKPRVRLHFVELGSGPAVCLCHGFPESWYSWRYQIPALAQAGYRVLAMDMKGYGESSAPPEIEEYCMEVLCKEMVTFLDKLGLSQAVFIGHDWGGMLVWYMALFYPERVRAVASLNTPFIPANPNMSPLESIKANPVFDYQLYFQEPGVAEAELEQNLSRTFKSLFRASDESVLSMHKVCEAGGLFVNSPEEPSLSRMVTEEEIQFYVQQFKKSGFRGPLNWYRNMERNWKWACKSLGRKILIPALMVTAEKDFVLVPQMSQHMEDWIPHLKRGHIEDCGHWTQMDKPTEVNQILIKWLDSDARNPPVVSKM
Described as above.

Assay [4] has as its target T4, rat mEH (rat) (UniProt P07687).
T4 sequence: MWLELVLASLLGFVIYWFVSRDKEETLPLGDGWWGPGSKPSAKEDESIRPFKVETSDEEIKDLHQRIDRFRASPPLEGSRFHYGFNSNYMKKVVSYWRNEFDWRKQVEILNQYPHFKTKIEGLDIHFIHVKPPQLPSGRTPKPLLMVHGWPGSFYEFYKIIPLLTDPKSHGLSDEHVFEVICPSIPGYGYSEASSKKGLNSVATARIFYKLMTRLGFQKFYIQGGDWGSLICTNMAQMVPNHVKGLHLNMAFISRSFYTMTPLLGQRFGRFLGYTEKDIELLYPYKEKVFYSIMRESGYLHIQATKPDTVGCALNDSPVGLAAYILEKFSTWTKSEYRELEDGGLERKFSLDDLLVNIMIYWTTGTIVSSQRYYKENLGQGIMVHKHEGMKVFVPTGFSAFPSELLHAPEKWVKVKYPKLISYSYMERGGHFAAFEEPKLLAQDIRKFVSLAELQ
The assay is described as above.

Assay [5] addresses T5, human EH-3 (human) (UniProt Q9H6B9).
T5 sequence: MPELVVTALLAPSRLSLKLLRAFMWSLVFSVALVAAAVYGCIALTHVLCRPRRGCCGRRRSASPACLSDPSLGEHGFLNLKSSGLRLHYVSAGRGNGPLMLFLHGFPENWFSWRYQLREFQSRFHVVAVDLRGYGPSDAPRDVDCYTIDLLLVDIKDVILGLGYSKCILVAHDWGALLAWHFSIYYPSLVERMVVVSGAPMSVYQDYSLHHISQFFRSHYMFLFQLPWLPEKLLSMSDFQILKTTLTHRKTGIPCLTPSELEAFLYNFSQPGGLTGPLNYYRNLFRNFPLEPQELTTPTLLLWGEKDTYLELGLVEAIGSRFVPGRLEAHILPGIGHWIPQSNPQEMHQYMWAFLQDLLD
The description is as above.

Assay [6] has as its target T6, recombinant human microsomal epoxide hydrolase (Homo sapiens, UniProt P07099, final four amino acid residues of mEH (LERQ) were mutated to the Factor Xa …).
T6 construct: human microsomal epoxide hydrolase (mEH), Uniprot P07099; Extracted from microsomes with beta-DDM; also called mEH; human mEH; source: Tni (Trichoplusia ni) insect cells, baculovirus, purified (Ni-NTA, size exclusion chromatography)
Put plainly: ELISA; direct ELISA testing the titer of the candidate nanobodies; format not described. The following applies: both partners purified.

Assay [7] concerns the target T6, recombinant human microsomal epoxide …. Put plainly: ELISA; phage ELISA of randomly picked single phage clones against recombinant human mEH. The settings on record: one partner purified.
Assay [8] has the same target. Put plainly: far-Western, overlay or dot blot; Western blot: recombinant human mEH denatured, run on Mini-protean TGX gels, transferred to PVDF; nanobody as detection antibody (HRP-labelled anti-HA as tracer, or MQM8-HRP). The settings on record: both partners purified. In general terms: In western blotting, separated proteins are transferred to a membrane and probed.

T6 sequence (P07099 other isoform, or with tags, fused parts or gaps with the stated changes): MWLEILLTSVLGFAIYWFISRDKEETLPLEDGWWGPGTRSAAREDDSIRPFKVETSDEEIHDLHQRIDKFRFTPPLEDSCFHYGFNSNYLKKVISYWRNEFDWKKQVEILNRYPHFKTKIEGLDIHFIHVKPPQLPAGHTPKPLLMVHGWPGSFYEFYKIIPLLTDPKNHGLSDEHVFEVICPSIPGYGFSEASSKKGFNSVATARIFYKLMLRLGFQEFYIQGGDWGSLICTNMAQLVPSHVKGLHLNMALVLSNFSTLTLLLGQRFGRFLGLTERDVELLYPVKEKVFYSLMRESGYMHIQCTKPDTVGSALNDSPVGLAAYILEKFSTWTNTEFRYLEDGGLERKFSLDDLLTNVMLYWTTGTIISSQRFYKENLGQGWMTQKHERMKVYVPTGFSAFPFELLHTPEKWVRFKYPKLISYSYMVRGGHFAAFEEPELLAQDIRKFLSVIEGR
T1 sequence (P07099 whole entry): as the sequence (P07099 other isoform, or with tags, fused parts or gaps with the stated changes) above, with I452L, G454R, R455Q counted along it

B1: nanobody MQ30 (VHH)
VHH: QVQLVESGGGVVQPGGSLRLSCVVSGSRFSLNFMGWFRQAPGKEREFVAALIWRGDVAHYAASNKGRFTVSKESAKNTVYLQLNSLEPEDTAVYSCAAQPWYSRDTYSDSDSYKYWGQGTQVTVSS
notes: Selected from a phage library of an immunised llama; In the phage ELISA the clone stood on phage, not as the soluble purified VHH; also called VHH MQ30; native VHH MQ30; source: E. coli TOP10F', purified (B-PER extraction, Ni-NTA); in the phage ELISA as a phage clone
Regarding B1, the binding result in assay [1] is given as “binds”. The cross-reactivity in assay [2] is under 0.01%; in assay [3] it was under 0.01%; in assay [4] it was 0.11%; in assay [5], under 0.01%. For the same molecule, the measured concentration at 1000 ng mL^-1 spiked in assay [4] was found to be 1.05 ng/mL.

B2: biotinylated VHH MQ30 (VHH)
VHH: B1 VHH
notes: as the VHH of m4 (MQ30); also called biotinylated MQ30; source: E. coli TOP10F', purified (Ni-NTA), then biotinylated
For the molecule B2, in assay [1], the binding result is reported as “binds”.

B3: nanobody MQ17 (VHH)
VHH: QLQLVESGGGLVQPGGSLTLSCAASGSIFTIDALGWFRQAPGKEREFVAALPWRDGVPYYAASNKGRFSVSKDSAKNTVFKNTVFLQVNNLEPEDTAVYSCAARPWYATSTYSDSDSYGYWGQGTQVTVSS
notes: Selected from a phage library of an immunised llama; In the phage ELISA the clone stood on phage, not as the soluble purified VHH; also called VHH MQ17; source: E. coli TOP10F', purified (B-PER extraction, Ni-NTA); in the phage ELISA as a phage clone
Regarding B3, the binding result in assay [6] is on record as “binds”.

B4: nanobody MQ4 (VHH)
VHH: QVQLVESGGGLAQPGGSLRLSCDASGSPYIINDMGWYRQAPGKQRELVASITRRGITNVADSVKGRFTISRDNAKMTVYLQMNSLKSEDTALYNCHAQPAVTPRMDYWGQGTQVTVSS
notes: Selected from a phage library of an immunised llama; In the phage ELISA the clone stood on phage, not as the soluble purified VHH; also called VHH MQ4; source: E. coli TOP10F', purified (B-PER extraction, Ni-NTA); in the phage ELISA as a phage clone
B4: the binding result in assay [7] is reported as “binds”.

B5: nanobody MQM8 (VHH)
VHH: QLQLVESGGGFVPPGGSLRLSCAASGFIFRFVGMGRYRQAPGKQRELVASITGNDYRNYADSVKGRFTISRDNYKNTVDLQMNSLKPEDTAVYYCNRVPLDFGSWGQGTQVTVSS
notes: Selected from a phage library of an immunised llama; In the phage ELISA the clone stood on phage, not as the soluble purified VHH; also called VHH MQM8; source: E. coli TOP10F', purified (B-PER extraction, Ni-NTA); in the phage ELISA as a phage clone
Take B5: in assay [6], the binding result was “binds”.

B6: MQM8-HRP (VHH)
VHH: B5 VHH
notes: as the VHH of m5 (MQM8); Named only as 'MQM8-HRP as a signal tracer'; also called HRP-labelled VHH MQM8
Consider B6, for which, in assay [8], the binding result is given as “binds”.

The values are drawn from publication PMC10572367, “The Generation of a Nanobody-Based ELISA for Human Microsomal Epoxide Hydrolase” (International Journal of Molecular Sciences, 2023).
